Reference: US20080113383A1 (FIBRO GEN, published 2008)
Where two headings read alike, the source gives them in different places. Where no end group is shown, it is not given here. [ ]: non-standard residue; d: D form. ΔPro = O=C(O)[C@@H]1C=CCN1; Aze = O=C(O)[C@@H]1CCN1

Key:
Test in all cases: cell-based or functional assay
EGLN1 [1] = target: EGLN1
EGLN3 [2] = target: EGLN3
EGLN2 [3] = target: EGLN2
EGLN1 [4] = target: EGLN1; remark: listed apart in the source
EGLN2 [5] = target: EGLN2; remark: listed apart in the source
EGLN3 [6] = target: EGLN3; remark: listed apart in the source

Binder: DTDLDEEALAPYIPADDDFQ [DTDLDEEALApYIPADDDFQ]
- Activity (%)* (EGLN1 [1]): 49.6%
- Activity (%)* (EGLN3 [2]): 80.8%
- Activity (%)* (EGLN2 [3]): 44.3%

Binder: DTDLDAEALAPYIPADDDFQ [DTDLDAEALApYIPADDDFQ]
- Activity (%)* (EGLN1 [1]): 51%
- Activity (%)* (EGLN3 [2]): 87.2%
- Activity (%)* (EGLN2 [3]): 46.9%

Binder: DTDLDLEAVAPYIPADDDFQ (not fully specified; printed as DTDLDLEAVApYIPADDDFQ) [DTDLDLEAVApYIPADDDFQ]
- Activity (%)* (EGLN1 [1]): 99.2%
- Activity (%)* (EGLN3 [2]): 117%
- Activity (%)* (EGLN2 [3]): 86.8%

Binder: DTDLDVEAYAPYIPADDDFQ (not fully specified; printed as DTDLDVEAYApYIPADDDFQ) [DTDLDVEAYApYIPADDDFQ]
- Activity (%)* (EGLN1 [1]): 35.5%
- Activity (%)* (EGLN3 [2]): 44.5%
- Activity (%)* (EGLN2 [3]): 32.4%

Binder: DTDLDLEANAPYIPADDDFQ [DTDLDLEANApYIPADDDFQ]
- Activity (%)* (EGLN1 [1]): 49.2%
- Activity (%)* (EGLN3 [2]): 42.5%
- Activity (%)* (EGLN2 [3]): 37.7%

Binder: DTDLDAEAAA[Aze]YIPADDDFQ [DTDLDAEAAA8YIPADDDFQ]
- Activity (%)* (EGLN1 [4]): 10.3%
- Activity (%)* (EGLN2 [5]): 4.16%

Binder: DTDLDWEALAPYIPADDDFQ (not fully specified; printed as DTDLDWEALApYIPADDDFQ) [DTDLDWEALApYIPADDDFQ]
- Activity (%)* (EGLN1 [1]): 108%
- Activity (%)* (EGLN3 [2]): 120%
- Activity (%)* (EGLN2 [3]): 138%

Binder: DTDLDPEALAPYIPADDDFQ (not fully specified; printed as DTDLDPEALApYIPADDDFQ) [DTDLDPEALApYIPADDDFQ]
- Activity (%)* (EGLN1 [1]): 40.8%
- Activity (%)* (EGLN3 [2]): 76.6%
- Activity (%)* (EGLN2 [3]): 37.4%

Binder: DTDLDFEALAPYIPADDDFQ [DTDLDFEALApYIPADDDFQ]
- Activity (%)* (EGLN1 [1]): 65.2%
- Activity (%)* (EGLN3 [2]): 142%
- Activity (%)* (EGLN2 [3]): 58.6%

Binder: DTDLDVEAVA[Aze]YIPADDDFQ [DTDLDVEAVA8YIPADDDFQ]
- Activity (%) (EGLN3 [6]): 20.6%

Binder: DTDLDTEAVA[Aze]YIPADDDFQ [DTDLDTEAVA8YIPADDDFQ]
- Activity (%) (EGLN3 [6]): 10.3%

Binder: DTDLDLEAHAPYIPADDDFQ [DTDLDLEAHApYIPADDDFQ]
- Activity (%)* (EGLN1 [1]): 34%
- Activity (%)* (EGLN3 [2]): 27%
- Activity (%)* (EGLN2 [3]): 32.3%

Binder: DTDLDDEALAPYIPADDDFQ [DTDLDDEALApYIPADDDFQ]
- Activity (%)* (EGLN1 [1]): 51%
- Activity (%)* (EGLN3 [2]): 65%
- Activity (%)* (EGLN2 [3]): 42.8%

Binder: DTDLDVEAFAPYIPADDDFQ (not fully specified; printed as DTDLDVEAFApYIPADDDFQ) [DTDLDVEAFApYIPADDDFQ]
- Activity (%)* (EGLN1 [1]): 34.1%
- Activity (%)* (EGLN3 [2]): 44.2%
- Activity (%)* (EGLN2 [3]): 37.5%

Binder: DTDLDLEALA[ΔPro]YIPADDDFQ [DTDLDLEALA4YIPADDDFQ]
- Activity (%)* (EGLN1 [4]): 124%
- Activity (%)* (EGLN2 [5]): 173%
- Activity (%) (EGLN3 [6]): 74.4%

Binder: DTDLDSEALAPYIPADDDFQ (not fully specified; printed as DTDLDSEALApYIPADDDFQ) [DTDLDSEALApYIPADDDFQ]
- Activity (%)* (EGLN1 [1]): 34.7%
- Activity (%)* (EGLN3 [2]): 61.3%
- Activity (%)* (EGLN2 [3]): 23.8%

Binder: DTDLDAEAVAPYIPADDDFQ [DTDLDAEAVApYIPADDDFQ]
- Activity (%)* (EGLN1 [1]): 34%
- Activity (%)* (EGLN3 [2]): 35.6%
- Activity (%)* (EGLN2 [3]): 26.3%

Binder: DTDLDCEALAPYIPADDDFQ [DTDLDCEALApYIPADDDFQ]
- Activity (%)* (EGLN1 [1]): 44.7%
- Activity (%)* (EGLN3 [2]): 75.8%
- Activity (%)* (EGLN2 [3]): 48.8%

Binder: DTDLDLEAAAPYIPADDDFQ [DTDLDLEAAApYIPADDDFQ]
- Activity (%)* (EGLN1 [1]): 36.1%
- Activity (%)* (EGLN3 [2]): 30.2%
- Activity (%)* (EGLN2 [3]): 30.9%

Binder: DTDLDAEATA[Aze]YIPADDDFQ [DTDLDAEATA8YIPADDDFQ]
- Activity (%)* (EGLN1 [4]): 7.6%
- Activity (%)* (EGLN2 [5]): 1.55%

Binder: DTDLDLEAWAPYIPADDDFQ (not fully specified; printed as DTDLDLEAWApYIPADDDFQ) [DTDLDLEAWApYIPADDDFQ]
- Activity (%)* (EGLN1 [1]): 50.4%
- Activity (%)* (EGLN3 [2]): 37.3%
- Activity (%)* (EGLN2 [3]): 42.4%

Binder: DTDLDLEAMAPYIPADDDFQ [DTDLDLEAMApYIPADDDFQ]
- Activity (%)* (EGLN1 [1]): 63.7%
- Activity (%)* (EGLN3 [2]): 94.3%
- Activity (%)* (EGLN2 [3]): 55.8%

Binder: DTDLDVEAIAPYIPADDDFQ (not fully specified; printed as DTDLDVEAIApYIPADDDFQ) [DTDLDVEAIApYIPADDDFQ]
- Activity (%)* (EGLN1 [1]): 45.3%
- Activity (%)* (EGLN3 [2]): 43.3%
- Activity (%)* (EGLN2 [3]): 36.6%

Binder: DTDLDIEALAPYIPADDDFQ [DTDLDIEALApYIPADDDFQ]
- Activity (%)* (EGLN1 [1]): 50.7%
- Activity (%)* (EGLN3 [2]): 149%
- Activity (%)* (EGLN2 [3]): 43.7%

Binder: DTDLDLEATAPYIPADDDFQ [DTDLDLEATApYIPADDDFQ]
- Activity (%)* (EGLN1 [1]): 68.2%
- Activity (%)* (EGLN3 [2]): 63.2%
- Activity (%)* (EGLN2 [3]): 54.9%

Binder: DTDLDGEALAPYIPADDDFQ [DTDLDGEALApYIPADDDFQ]
- Activity (%)* (EGLN1 [1]): 37.3%
- Activity (%)* (EGLN3 [2]): 40.9%
- Activity (%)* (EGLN2 [3]): 32%

Binder: DTDLDLEACAPYIPADDDFQ [DTDLDLEACApYIPADDDFQ]
- Activity (%)* (EGLN1 [1]): 41.3%
- Activity (%)* (EGLN3 [2]): 49.4%
- Activity (%)* (EGLN2 [3]): 40.4%

Binder: DTDLDLEAKAPYIPADDDFQ [DTDLDLEAKApYIPADDDFQ]
- Activity (%)* (EGLN1 [1]): 63.2%
- Activity (%)* (EGLN3 [2]): 44.1%
- Activity (%)* (EGLN2 [3]): 54.6%
